Measurements published in patent publication US20220064286A1 (Genentech, published 2022).
Positions count from the first letter of the chain named. Names may count otherwise.

T1: human TIGIT protein (human, UniProt Q495A1 22-141, limits assumed)
T1 construct: Recombinant protein (Genentech) used in ELISA screening and as SPR analyte; also called TIGIT antigen
T1 sequence: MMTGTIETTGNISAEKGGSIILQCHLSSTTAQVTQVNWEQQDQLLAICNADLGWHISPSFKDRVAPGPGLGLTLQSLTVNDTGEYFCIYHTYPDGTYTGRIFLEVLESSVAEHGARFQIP

T2: hTIGIT mutant H76A (human, UniProt Q495A1)
T2 sequence (TIGIT, looked up): T1 sequence with H55A

B1: 7.4A3 (antibody, V domains shown)
VH: QVQLVQSGSDLKKPGASVRVSCKASGYTFTSYPMNWVRQAPGHGLEWMGWINTNTGNPTYVQGFTGRFVFSLDTSVNTAYLQISSLKAEDTAVYFCARTGGHTYDSYAFDVWGQGTMVTVSS
VL: DIQLTQSPTFLSASVGDRVTITCRASQVISSSLAWYQQNPGKAPKLLIYAASTLQSGVPSRFSGSGSGTEFTLTISSLQPEDFVTYYCQHLHGYPCNFGQGTKVEIK
notes: OMT rat-derived human antibody; also called 7.4A3.Q1.C96
B2: 7.4A3.C96Y.Q1E (antibody, V domains shown)
VH: B1 VH with Q1E
VL: B1 VL with C96Y
notes: No entry is tied to this variant by name; built from 7.4A3 with the two named changes (Q1E in the heavy chain, C96Y in HVR-L3); also called 7.4A3.Q1E.C96Y
B3: 4.1A4.C96S.Q1E (antibody, V domains shown)
VH: EVQLVQSGSELKKPGASVKVSCKASGYTLTNYPMNWVRQAPGRGLEWMGWINTNTGSPAYAQDFTERFVFSLDTSVTTAYLQISSLKAEDTAVYYCARTAITSVYHFDYWGQGTLVTVSS
VL: DIQLTQSPSFLSASVGDRVTITCRASQGISSYLAWYQQKPGKAPRVLIYGATTLQSGVPSRFSGSESGTEFTLTISSLQPEDLATYYCQKLNSHPSSFGQGTKVEIK
notes: FR/HVR pieces in order; also called 4.1A4.Q1E.C96S
B4: h6B2.L1H1 (antibody, V domains shown)
VH: EVTLKESGPALVKPTQTLTLTCTFSGFSLSTYGMGVSWIRQPPGKALEWLASIWWNGNTYYNPSLKSRLTVTKDASKNQAVLTMTNMDPVDTATYYCAHTGGAVITWFAYWGQGTLVTVSS
VL: DIQMTQSPSSLSASVGDRVTITCKASQSVGKNIAWYQQKPGKSPKLLIYYASNRYTGVPSRFSGSGSGTDFTFTISSLQPEDIATYYCQHIYNSPYPFGQGTKVEIK
notes: Humanized; FR/HVR pieces in order; also called h1.6B2.L1H1
B5: h10A5.L1H1 (antibody, V domains shown)
VH: B4 VH with S30T, K66R, A75T
VL: EIVMTQSPATLSVSPGERATLSCKASQSVGKNIAWYQQKPGQSPRLLIYYASNRYTGVPARFSGSGSGTEFTLTISSLQSEDFAVYYCQHIYNSPYPFGQGTKVEIK
notes: Humanized; FR/HVR pieces in order; also called h1.10A5.L1H1
B6: h15C8.L1H1 (antibody, V domains shown)
VH: EVQLVQSGAEVKKPGASVKVSCKASGYTFTEHSIYWLRQAPGQRLEIIGRIDPKNGRTYFVDKFKNRATLTTDTSASTAYMELSSLRSEDTAVYFCARIDGFYFDFWGQGTLVTVSS
VL: DIQLTQSPSFLSASVGDRVTITCKGSQNVNKYLVWYQQKPGKAPKLLIYSTDNLQSGIPSRFSGSGSGTEYTLTISSLQPEDFATYFCYQYNNGFTFGQGTKVEIK
notes: First humanized version; FR/HVR pieces in order; also called h1.15C8.L1H1
B7: h7E7.L1H1 (antibody, V domains shown)
VH: B6 VH with H32Y, L37V, F60Y, T72A, A97T, D100Y
VL: B6 VL with S50N
notes: First humanized version; FR/HVR pieces in order; also called h1.7E7.L1H1
B8: h7E7.L5aH9a (antibody, V domains shown)
VH: B6 VH with H32Y, L37V, I48M, F60Y, A68V, L70I, T72R, F95Y, D100Y
VL: B6 VL with S50N, I58V, F87Y
notes: Final humanized 7E7; keeps rat VH I47 and VL Y71; FR/HVR pieces
B9: 4.1A4.C96Y.Q1E (antibody, V domains shown)
VH: B3 VH
VL: B3 VL with S96Y
notes: FR/HVR pieces in order; also called 4.1A4.Q1E.C96Y

What follows are binders tested against T1, human TIGIT protein (assay: SPR, captured mAb).
Excerpt: (§1) To prevent unwanted pyroglutamate formation for clones 4.1A4, 4.1 D3, and 7.4A3 (also referred to as 1A4, 1 D3, and 4A3, respectively) and to resolve the issue of unpaired cysteine residues for clones 4.1A4 and 7.4A3, the following optimized anti-TIGIT antibody variants were generated: 4.1A4.C96S.Q1E, 4.1A4.C96Y.Q1E, 4.1 D3.Q1E, 7.4A3.C96S.Q1E, and 7.4A3.C96Y.Q1E (also referred to as 1A4.C96S.Q1E, 1A4.C96Y.Q1E, 1 D3.Q1E, 4A3.C96S.Q1E, and 4A3.C96Y.Q1E, respectively). As described below in Table 2, the affinities of these five optimized variants for human and cynomolgus monkey (cyno) TIGIT were then determined by Surface Plasmon Resonance (SRP) (BIACORE™ analysis) and compared to that of their respective parental clones.
(§2) Briefly, a series S CM5 biosensor chip was activated with N-ethyl-N′-(3-dimethylaminopropyl)-carbodiimide hydrochloride (EDC) and N-hydroxysuccinimide (NHS) reagents according to the supplier's (GE Healthcare Biosciences, Piscataway, N.J.) instructions, and a human antibody capture kit was applied to couple goat anti-human Fc IgGs in order to achieve approximately 10,000 response units (RU) on each flow cell, followed by blocking un-reacted groups with 1M ethanolamine.
(§3) (flow rate: 30 μl/min) with no regeneration between injections. The sensorgrams were recorded and evaluated by BIAcore™ T200 Evaluation Software (version 2.0) after subtraction of reference cell signal. Association rates (kₒₙ) and dissociation rates (koff) were calculated using a simple one-to-one Langmuir binding model. The equilibrium dissociation constant (KD) was calculated as the ratio koff/kₒₙ.

| Kd [nM] | koff [s⁻¹] | kon [M⁻¹ s⁻¹] | Binder |
| --- | --- | --- | --- |
| 3.44 | 0.00104 | 302000 | B1 |
| 98 | 0.0365 | 372000 | B2 |

Each binder was assayed against T3, cynomolgus monkey (cyno) TIGIT protein (cynomolgus monkey, UniProt A0A7N9I9V4 89-209) (assay: SPR, captured mAb).
Excerpt: as §1, §2, §3

T3 sequence (A0A7N9I9V4 entry or part of it): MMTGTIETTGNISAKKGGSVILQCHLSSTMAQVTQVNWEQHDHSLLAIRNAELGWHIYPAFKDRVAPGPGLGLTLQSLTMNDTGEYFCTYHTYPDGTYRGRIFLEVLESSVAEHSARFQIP

| Kd [nM] | koff [s⁻¹] | kon [M⁻¹ s⁻¹] | Binder |
| --- | --- | --- | --- |
| 12.6 | 0.0169 | 1.34e+06 | B3 |
| 2.09 | 0.000699 | 334000 | B1 |
| 35.6 | 0.014 | 395000 | B2 |

Target: T1, human TIGIT protein
Test: SPR, captured mAb
Remark: another data set of the same source
Experimental: as §2, §3
(§4) The first humanized versions, h6B2, L1H1, h10A5.L1H1, h7E7, L1H1, and h15C8.L1H1, which contain both rat CDRs and framework residues at Vernier positions, and the fully humanized versions, h6B2.L2H5, h10A5.L4H4, h7E7.L5H9, and h15C8.L5H9, which contain only rat CDRs were subject to BIAcore affinity measurement by comparison with original rat antibodies, rat6B2, rat10A5, rat7E7 and rat 15C8. For binding affinity determinations of TIGIT antibodies against human TIGIT, cynomolgus monkey TIGIT and human alanine-scanned TIGIT mutants by single-cycle kinetics, Surface Plasmon Resonance (SRP) measurement with a BIACORE™-T200 instrument was used, as described above.

| Kd [nM] | koff [s⁻¹] | kon [M⁻¹ s⁻¹] | Binder |
| --- | --- | --- | --- |
| 0.54 | 0.00253 | 4.67e+06 | B4 |
| 0.52 | 0.00238 | 4.57e+06 | B5 |
| 0.39 | 0.000357 | 922000 | B6 |
| 0.23 | 0.000476 | 2.06e+06 | B7 |

Target: T3, cynomolgus monkey (cyno) TIGIT protein
Test: SPR, captured mAb
Remark: another data set of the same source
Experimental: as §2, §3, §4

| Kd [nM] | koff [s⁻¹] | kon [M⁻¹ s⁻¹] | Binder |
| --- | --- | --- | --- |
| 0.96 | 0.00118 | 1.23e+06 | B4 |
| 0.86 | 0.00127 | 1.47e+06 | B5 |
| 0.94 | 0.000464 | 493000 | B6 |
| 0.36 | 0.000152 | 418000 | B7 |
| 0.31 | 0.000182 | 591000 | B8 |

What follows are binders tested against T1, human TIGIT protein (assay: SPR, bivalent affinity).

| Kd [nM] | Binder |
| --- | --- |
| 0.098 | B1 |

The binders below were run against T3, cynomolgus monkey (cyno) TIGIT protein (assay: SPR, bivalent affinity).

| Kd [nM] | Binder |
| --- | --- |
| ≤ 0.05 | B1 |

The binders below were run against T1, human TIGIT protein (assay: SPR, monovalent affinity).

| Kd [nM] | Binder |
| --- | --- |
| 0.54 | B4 |
| 0.52 | B5 |
| 3.6 | B1 |
| 98.1 | B2 |
| 0.58 | B6 |
| 0.33 | B7 |

These binders were tested against T3, cynomolgus monkey (cyno) TIGIT protein (assay: SPR, monovalent affinity).

| Kd [nM] | Binder |
| --- | --- |
| 12.6 | B3 |
| > 100 | B9 |
| 0.96 | B4 |
| 0.86 | B5 |
| 1.6 | B1 |
| 35.5 | B2 |
| 1.39 | B6 |
| 0.51 | B7 |

What follows are binders tested against T2, hTIGIT mutant H76A (assay: SPR (BIACORE), N=2).

| Kd [nM] | Binder |
| --- | --- |
| 1 | B8 |

Each binder was assayed against T2, hTIGIT mutant H76A (assay: SPR (BIACORE) KD normalized to WT, N=2).

| Binding affinity drop vs. WT [fold] | Binder |
| --- | --- |
| 2.5 | B8 |

The binders below were run against T4, cynomolgus TIGIT on CHO cells (cynomolgus monkey, UniProt A0A7N9I9V4 89-312) (assay: FACS on CHO cells expressing cyno TIGIT, FITC anti-hIgG detection).
T4 construct: whole, on cells; also called CHO-cyTIGIT; cyTIGIT
Experimental: Additional in vitro binding studies of the OMT- and SD-derived anti-TIGIT antibody clones were conducted. The OMT- and SD-derived anti-TIGIT clones were tested for binding to human and cyno TIGIT expressed on the surface of CHO cells by FACS analysis. CHO cells were transfected with full-length human TIGIT (CHO-hTIGIT) or cynomologous TIGIT (CHO-cyTIGIT). The TIGIT-expressing CHO cells were incubated with each anti-TIGIT antibody at the indicated concentrations and then detected via a FITC-labeled anti-hIgG antibody (see FIG. 1A) using standard methods. The results, shown in Table 6 and FIGS. 1B-1E, corroborate the results from the BIACORE™ analysis, described above.

T4 sequence (A0A7N9I9V4 entry or part of it): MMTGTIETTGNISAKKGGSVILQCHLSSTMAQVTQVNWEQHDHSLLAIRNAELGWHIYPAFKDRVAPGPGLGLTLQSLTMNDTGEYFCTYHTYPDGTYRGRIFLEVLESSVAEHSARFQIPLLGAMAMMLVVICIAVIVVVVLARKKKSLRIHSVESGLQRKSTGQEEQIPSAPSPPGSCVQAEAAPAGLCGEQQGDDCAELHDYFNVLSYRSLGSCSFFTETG

| EC50 (read off the curve) [nM] | Binder |
| --- | --- |
| ~0.5 | B3 |
| ~1 | B1 |

What follows are binders tested against T4, cynomolgus TIGIT on CHO cells (assay: FACS blocking assay: labelled PVR-Fc (blocked ligand) on CHO cells expressing cyno TIGIT).
Experimental: (§5) These studies were further validated in CHO-TIGIT PVR blocking experiments in which TIGIT-expressing CHO cells were incubated with labeled PVR-Fc fusion protein in the presence of anti-TIGIT antibody or an human IgG1 control (FIG. 4A).

| binding result | Binder |
| --- | --- |
| no binding (tested: about 20 nM) | B9 |

What follows are binders tested against T4, cynomolgus TIGIT on CHO cells (assay: FACS blocking assay: labelled PVR-Fc (blocked ligand; text: cyPVR, scheme of FIG. 4A prints hPVR.Fc) on CHO cells expressing cyno TIGIT).
Experimental: as §5

| IC50 (read off the curve) [nM] | Binder |
| --- | --- |
| ~0.09 | B3 |
| ~0.3 | B1 |
